Two molecules from patent US20190345227A1 (HONG KONG UNIVERSITY OF SCIENCE AND TECHNOLOGY, published 2019) can be followed below.

The target of experiment [1] is T1, SpyCatcher-elastin-CarHC-elastin-SpyCatcher.
T1 construct: Recombinant telechelic fusion protein (68 kDa) with two TEV protease sites, expressed in E. coli; also called BCB; SpyCatcher-ELP-carHC-ELP-SpyCatcher
As to the kind of experiment: Dynamic shear rheology and erosion tests of the covalently cross-linked (SpyTag-SpyCatcher) hydrogel. The source says:
Protein drugs, an important category of modem therapeutics, have a short half-life time inside the body because of rapid plasma clearance and proteolytic degradation, which constitutes a fundamental challenge for their delivery. The feasibility of using the photoresponsive CarHC-ELP hydrogel system to encapsulate and release protein molecules in a controlled manner was investigated. Two recombinant proteins, SpyTag-elastin-like polypeptide-SpyTag-elastin-like polypeptide-SpyTag (represented by the structural linkage “AAA”) (FIG. 6 and FIG. 13) and BCB, were synthesized with an elastin protein fragment to generate a covalently cross-linked ELP hydrogel. The two proteins were dissolved in PBS to make 10 wt % solutions. Gelation was initiated by mixing the two components at a 2:3 molar ratio and a stoichiometric amount of AdoB₁₂ in the dark. Dynamic shear rheology experiments in time-, frequency- and strain-sweep modes and erosion tests further confirmed the formation of a stable hydrogel (G′=0.96 kPa and G″=0.03 Pa) by AAA+BCB+AdoB₁₂ (FIGS. 14A-14C, respectively, and FIG. 15).

The target in experiment [2] is T1, SpyCatcher-elastin-CarHC-elastin-SpyCatc …. As to the kind of experiment: Size-exclusion chromatography of the ACA+BCB reaction product and of the light-degraded gel. The major peak eluted at the void volume. The SpyTag-SpyCatcher bond is covalent. Here is the method:
Using an Escherichia coli expression system, sufficient amounts of the ACA (98 mg/L) and BCB (66 mg/L) proteins with high purity (FIG. 6-9) were produced and isolaged. After extensive dialysis against distilled water and lyophilization, the resulting protein powders were readily dissolved in PBS. The two protein solutions, ACA and BCB (10 wt % in PBS), were mixed at an equimolar ratio immediately followed by addition of a stoichiometric amount of AdoB 12 to initiate gelation at room temperature in the dark. A red gel-like material was formed within 5 min; the gelation typically continued for at least 7 h in the dark before any subsequent analysis. The resulting gel was sensitive to light and converted to liquid on exposure to white LED light (30 klux) within 20 min (FIG. 2B). observed gel-sol transition can be explained by the light-induced disassembly of CarHC tetramers (FIGS. 1A & 1B). […] This SEC result further confirmed a sufficient pymerization of the CarHC proteins enabled by the SpyTag-SpyCatcher reaction during gelation.
For orientation: SEC sorts molecules by how far they enter the pores of the column.

B1: SpyTag-elastin-like polypeptide-SpyTag-elastin-like polypeptide-SpyTag (other)
chain: MKGSSHHHHHHVDAHIVMVDAYKPTKLDGHGVGVPGVGVPGVGVPGEGVPGVGVPGVGVPGVGVPGVGVPGEGVPGVGVPGVGVPGVGVPGVGVPGEGVPGVGVPGVGELAHIVMVDAYKPTKTSVPGVGVPGVGVPGEGVPGVGVPGVGVPGVGVPGVGVPGEGVPGVGVPGVGVPGVGVPGVGVPGEGVPGVGVPGVGVPGGLLDAHIVMVDAYKPTKLEWKK
notes: Recombinant protein with three SpyTags; It forms the covalent network with BCB; also called AAA; SpyTag-ELP-SpyTag-ELP-SpyTag
For the molecule B1, in experiment [1], the binding result is “binds”.

B2: SpyTag-elastin-CarHC-elastin-SpyTag (other)
chain: MKGSSHHHHHHVDAHIVMVDAYKPTKLDGHGVGVPGVGVPGVGVPGEGVPGVGVPGVGVPGVGVPGVGVPGEGVPGVGVPGVGVPGVGVPGVGVPGEGVPGVGVPGVGELPEDLGTGLLEALLRGDLAGAEALFRRGLRFWGPEGVLEHLLLPVLREVGEAWHRGEIGVAEEHLASTFLRARLQELLDLAGFPPGPPVLVTTPPGERHEIGAMLAAYHLRRKGVPALYLGPDTPLPDLRALARRLGAGAVVLSAVLSEPLRALPDGALKDLAPRVFLGGQGAGPEEARRLGAEYMEDLKGLAEALWLPRGPEKEAITSVPGVGVPGVGVPGEGVPGVGVPGVGVPGVGVPGVGVPGEGVPGVGVPGVGVPGVGVPGVGVPGEGVPGVGVPGVGVPGGLLDAHIVMVDAYKPTKLEWKK
notes: Recombinant telechelic fusion protein (41 kDa) expressed in E. coli and purified on HisTrap; also called ACA; SpyTag-ELP-carHC-ELP-SpyTag
Take B2: the binding result in experiment [2] was “binds”.
